Measured values as given in patent publication US20240352130A1 (CHILDREN S HOSPITAL OF PHILADELPHIA, published 2024).
Where two headings read alike, the source gives them in different places.

Key:
[1] = biological target: T1, PHOX2B (43-51) A*24:02 MHC complex (human); assay: BLI (BLItz), biotinylated scFv on streptavidin sensor, soluble pMHC 200 nM
T1 construct: also called PHOX2B (43-51) complex; PHOX2B target pMHC
Protocol: (§1) Binding kinetics. Affinity measurements were performed using a BLItz™ system (ForteBio, USA) and analyzed using the BLItz Pro™ software.

… HLA-A*24:02 complex [2] = biological target: T2, … HLA-A*24:02 complex (human); assay: bead-based steady-state binding assay (FIG. 3A)
T2 construct: also called Unrelated peptide 4
Protocol: (§2) Steady-state binding assay. An equilibrium binding assay to target pMHCs was also established using MyOne Streptavidin C1 Dynabeads. Briefly, 50 micrograms of Streptavidin C1 Dynabeads were incubated with excess biotinylated scFv before being blocked with free biotin and washed in PBS. […] Binding was normalized to beads without scFv and with unrelated control MHC complex.

… HLA-A*24:02 complex [3] = biological target: T3, … HLA-A*24:02 complex (human); assay: bead-based steady-state binding assay (FIG. 3A)
T3 construct: also called Unrelated peptide 1
Protocol: as §2

… HLA-A*24:02 complex [4] = biological target: T4, … HLA-A*24:02 complex (human); assay: bead-based steady-state binding assay (FIG. 3A)
T4 construct: also called Unrelated peptide 2
Protocol: as §2

… HLA-A*24:02 complex [5] = biological target: T5, … HLA-A*24:02 complex (human); assay: bead-based steady-state binding assay (FIG. 3A)
T5 construct: also called Unrelated peptide 3
Protocol: as §2

[6] = biological target: T1, PHOX2B (43-51) A*24:02 MHC complex; assay: BLI (BLItz), biotinylated scFv on a streptavidin sensor, soluble pMHC in solution
Protocol: as §1
… HLA-A*24:02 complex [7] = biological target: T2, … HLA-A*24:02 complex; assay: bead-based binding, scFv on streptavidin beads, fluorescent pMHC
… HLA-A*24:02 complex [8] = biological target: T3, … HLA-A*24:02 complex; assay: as above
… HLA-A*24:02 complex [9] = biological target: T4, … HLA-A*24:02 complex; assay: as above
… HLA-A*24:02 complex [10] = biological target: T5, … HLA-A*24:02 complex; assay: as above
[11] = biological target: T1, PHOX2B (43-51) A*24:02 MHC complex; assay: BLI (BLItz), biotinylated scFv on streptavidin sensor, soluble pMHC 200 nM; remark: listed apart in the source
Protocol: as §1

[12] = biological target: T1, PHOX2B (43-51) A*24:02 MHC complex; assay: as above; remark: listed apart in the source
Protocol: as §1
… HLA-A*24:02 complex [13] = biological target: T2, … HLA-A*24:02 complex; assay: bead-based binding, scFv on streptavidin beads, fluorescent pMHC; remark: listed apart in the source
… HLA-A*24:02 complex [14] = biological target: T3, … HLA-A*24:02 complex; assay: as above; remark: listed apart in the source
… HLA-A*24:02 complex [15] = biological target: T4, … HLA-A*24:02 complex; assay: as above; remark: listed apart in the source
… HLA-A*24:02 complex [16] = biological target: T5, … HLA-A*24:02 complex; assay: as above; remark: listed apart in the source
[17] = biological target: T1, PHOX2B (43-51) A*24:02 MHC complex; assay: BLI (BLItz), biotinylated scFv on streptavidin sensor, soluble pMHC 200 nM; remark: listed apart in the source
Protocol: as §1
… HLA-A*24:02 complex [18] = biological target: T2, … HLA-A*24:02 complex; assay: bead-based binding, scFv on streptavidin beads, fluorescent pMHC; remark: listed apart in the source
… HLA-A*24:02 complex [19] = biological target: T3, … HLA-A*24:02 complex; assay: as above; remark: listed apart in the source
… HLA-A*24:02 complex [20] = biological target: T4, … HLA-A*24:02 complex; assay: as above; remark: listed apart in the source
… HLA-A*24:02 complex [21] = biological target: T5, … HLA-A*24:02 complex; assay: as above; remark: listed apart in the source

B1: Clone 10 (RU141-10) scFv (scFv)
scFv: SRNGGDGQSVLTQPPSVSVSPGQTASITCSGDSLGNKYACWYQQKPGQSPVLVIYQDSKRPSGIPERFSGSNSGNTATLTISGTQAMDEADYYCQAWDSSRGYTVVFGTGTKVTVSSQTGGSGGGGSGGGGSGGGGSEVQLLESGGGLVQPGGSLRLSCAASGFTFDSYAMSWVRQAPGKGLEWVSAISGYGGSTYYADSVKGRFTISRDNSKNTLYLQMNSLRAEDTAVYYCAKYTYFLDAFDIWGQGTMVTVSSS
[1]
  Kd: 10 nM
… HLA-A*24:02 complex [2]
  binding result: no binding (tested: 3.5 nM pMHC)
… HLA-A*24:02 complex [3]
  binding result: no binding (tested: 3.5 nM pMHC)
… HLA-A*24:02 complex [4]
  binding result: no binding (tested: 3.5 nM pMHC)
… HLA-A*24:02 complex [5]
  binding result: no binding (tested: 3.5 nM pMHC)
[6]
  koff: 0.00076 s⁻¹

B2: Clone 9 (RU-201-9) scFv (scFv)
scFv: SRNGGDGQSVLTQPPSVSVSPGQTASITCSGDSLGYKYACWYQQKPGQSPVLVIYQDSKRPSGIPERFSGSNSGNTATLTISGTQAMDEADYYCQAWDSLGVNTVVFGTGTKVTVSSQTGGSGGGGSGGGGSGGGGSEVQLLESGGGLVQPGGSLRLSCAASGFTFNYYAMSWVRQAPGKGLEWVSAISGYGGSTYYADSVKGRFTISRDNSKNTLYLQMNSLRAEDTAVYYCAKASEAYSAFDIWGQGTMVTVSSS
… HLA-A*24:02 complex [7]
  binding result: no binding (tested: 3.5 nM)
… HLA-A*24:02 complex [8]
  binding result: no binding (tested: 3.5 nM)
… HLA-A*24:02 complex [9]
  binding result: no binding (tested: 3.5 nM)
… HLA-A*24:02 complex [10]
  binding result: no binding (tested: 3.5 nM)
[11]
  Kd: 100 nM

B3: Clone 1114 (RU201-1114) scFv (scFv)
scFv: SRNGGDGQSVLTQPPSVSVSPGQTASITCSGDKLGDKYACWYQQKPGQSPVLVIYQDSKRPSGIPERFSGSNSGNTATLTISGTQAMDEADYYCQAWDSIGNMTVVFGTGTKVTVSSQTGGSGGGGSGGGGSGGGGSEVQLLESGGGLVQPGGSLRLSCAASGFTFDYYAMSWVRQAPGKGLEWVSAISGYGGSTYYADSVKGRFTISRDNSKNTLYLQMNSLRAEDTAVYYCAKASEYTNAFDIWGQGIMVTVSSS
[12]
  Kd: 270 nM
… HLA-A*24:02 complex [13]
  binding result: no binding (tested: 3.5 nM)
… HLA-A*24:02 complex [14]
  binding result: no binding (tested: 3.5 nM)
… HLA-A*24:02 complex [15]
  binding result: no binding (tested: 3.5 nM)
… HLA-A*24:02 complex [16]
  binding result: no binding (tested: 3.5 nM)

B4: Clone 1113 (RU-201-1113) scFv (scFv)
scFv: SRNGGDGQSVLTQPPSVSAAPGQKVTISCSGSSSNIGNNYVSWYQQLPGTAPKLLIYDNNKRPSGIPDRFSGSKSGTSATLGITGLQTGDEADYYCGTWDHMGRNTVVFGTGTKVTVSSQTGGSGGGGSGGGGSGGGGSEVQLLESGGGLVQPGGSLRLSCAASGFTFSDYAMSWVRQAPGKGLEWVSAISGTGGSTYYADSVKGRFTISRDNSKNTLYLQMNSLRAEDTAVYYCAKEFSVVNSAAFDIWGQGTMVTVSSS
[17]
  Kd: 9 nM
… HLA-A*24:02 complex [18]
  binding result: no binding (tested: 3.5 nM)
… HLA-A*24:02 complex [19]
  binding result: no binding (tested: 3.5 nM)
… HLA-A*24:02 complex [20]
  binding result: no binding (tested: 3.5 nM)
… HLA-A*24:02 complex [21]
  binding result: no binding (tested: 3.5 nM)
